Data taken from patent US20160176924A1 (UNIVERSITY OF COPENHAGEN, published 2016).
Square brackets hold non-standard residues; d marks the D form. Primed or numbered codes have the meaning given here. Ends that are not written are not given here. * marks the point of attachment. PEG6‑diacid = 4,7,10,13,16,19,22-Heptaoxapentacosane-1,25-dioic acid, O=C(O)CCOCCOCCOCCOCCOCCOCCOCCC(=O)*; PEG8‑diacid = PEG8-diacid linker: 4,7,10,13,16,19,22,25,28-nonaoxahentriacontane-1,31-dioic acid; cyclohexylethyl″ = cyclohexylethyl group on the nitrogen (N-alkyl substituent), C1CCC(CC*)CC1; PEG4‑diacid = 4,7,10,13,16-pentaoxanonadecane-1,19-dioic acid; (naphthalen-2-yl)ethyl = c1ccc2cc(CC*)ccc2c1; Cyclohexylmethyl = C1CCC(C*)CC1; NMeE = CN[C@@H](CCC(=O)O)C(=O)O; cyclohexylethyl = C1CCC(CC*)CC1; NMeA = CN[C@@H](C)C(=O)O; Bn = c1ccc(C*)cc1

B1: (IATAV)2PEG12 (87) (peptide)
peptide: IATAV
modifications: also: dimer: two peptides joined at N-terminal amines by amide bonds through a PEG12-diacid linker
notes: Dimeric ligand
B2: (IATAV)2PEG4 (88) (peptide)
peptide: IATAV
modifications: also: dimer: two peptides joined at N-terminal amines by amide bonds through a PEG4-diacid linker
notes: Dimeric ligand
B3: Compound 84 (ESDV dimerized with PEG12) (peptide)
peptide: ESDV
modifications: also: dimer: two peptides joined at N-terminal amines by amide bonds through a PEG12-diacid linker
notes: Dimeric ligand
B4: Compound 85 (ESDV dimerized with PEG8) (peptide)
peptide: ESDV
modifications: also: dimer: two peptides joined at N-terminal amines by amide bonds through a PEG8-diacid linker
notes: Dimeric ligand
B5: ETDV (64) (peptide)
peptide: ETDV
notes: also called 28 (ESDV with Ser P^-2 replaced by Thr)
B6: ETDV (69), N-cyclohexylethyl (peptide)
peptide: {cyclohexylethyl″}-ETDV-OH
SMILES: CC(C)[C@H](NC(=O)[C@H](CC(=O)O)NC(=O)[C@@H](NC(=O)[C@H](CCC(=O)O)NCCC1CCCCC1)[C@@H](C)O)C(=O)O
B7: N-(3,4-Dichlorophenyl)propyl-ETAV (61) (peptide)
peptide: ETAV
modifications: not fully specified
notes: The printed formula C25H37Cl2N4O8 and the comparison with 59 point to an ethyl spacer, the printed name says propyl
B8: N-(3,4-Difluorophenyl)propyl-ETAV (62) (peptide)
peptide: ETAV
modifications: not fully specified
notes: The printed formula C25H37F2N4O8 points to an ethyl spacer, the printed name says propyl
B9: ATDV (71), N-cyclohexylethyl (peptide)
peptide: {cyclohexylethyl″}-ATDV-OH
SMILES: CC(C)[C@H](NC(=O)[C@H](CC(=O)O)NC(=O)[C@@H](NC(=O)[C@H](C)NCCC1CCCCC1)[C@@H](C)O)C(=O)O

biological target: T1, HIS-PDZ1-2 protein (PSD-95 PDZ1-2 tandem, residues 61-249, with tag …) (human, UniProt P78352 61-249); test: FP competition, fluorescent NR2B probe

Point of comparison: B4, Ki 1 µM. Against it:
- {PEG2‑diacid}-IESDV (also: dimer: two peptides N-terminally joined via PEG2-diacid, Dimeric ligand) [Compound 79 (IESDV dimerized with PEG2-diacid)] — 3.7-fold lower, 0.27 µM
- {PEG4‑diacid}-IAT[NMeA]V-OH (also: dimer: two peptides N-terminally joined via PEG4-diacid, Dimeric ligand) [(IATAMeV)2PEG4 (90)] — 13-fold higher, 13 µM
- B1 — the same, 1 µM
- B2 — within 1.5-fold, 1.1 µM
- IAT[NMeA]V [IATAMeV (89)] — 140-fold higher, 142 µM
- B3 — within 1.5-fold, 0.92 µM
- {PEG1‑diacid}-IESDV (also: dimer: two peptides N-terminally joined via PEG1-diacid, Dimeric ligand) [Compound 80 (IESDV dimerized with PEG1-diacid)] — 1.8-fold lower, 0.56 µM

biological target: T2, HIS-PDZ2 protein (PSD-95 PDZ2, residues 155-249, with tag …) (human, UniProt P78352 155-249); test: FP competition, fluorescent NR2B probe

Point of comparison: {PEG1‑diacid}-IESDV (also: dimer: two peptides N-terminally joined via PEG1-diacid, Dimeric ligand) [Compound 80 (IESDV dimerized with PEG1-diacid)], Ki 4.7 µM. Against it:
- {PEG2‑diacid}-IESDV (also: dimer: two peptides N-terminally joined via PEG2-diacid, Dimeric ligand) [Compound 79 (IESDV dimerized with PEG2-diacid)] — the same, 4.7 µM
- {PEG4‑diacid}-IAT[NMeA]V-OH (also: dimer: two peptides N-terminally joined via PEG4-diacid, Dimeric ligand) [(IATAMeV)2PEG4 (90)] — 22-fold higher, 103 µM
- B1 — 2.8-fold higher, 13 µM
- IAT[NMeA]V [IATAMeV (89)] — 22-fold higher, 104 µM
- {PEG8‑diacid}-IESDV (also: dimer: two peptides N-terminally joined via PEG8-diacid, Dimeric ligand) [(IESDV)2PEG8 (76)] — 1.8-fold lower, 2.6 µM
- B4 — 4-fold higher, 19 µM
- {PEG6‑diacid}-IESDV (also: dimer: two peptides N-terminally joined via PEG6-diacid, Dimeric ligand) [(IESDV)2PEG6 (77)] — 2.4-fold lower, 2 µM

biological target: T3, HIS-PDZ1 protein (PSD-95 PDZ1, residues 61-151, with tag …) (human, UniProt P78352 61-151); test: FP competition, fluorescent NR2B probe
T3 construct: expressed in E. coli

For [NMeE]SDV [Compound 18 (ESDV with N-methylated Glu at P^-3)], the “fold higher Ki compared to peptide 1” value was 1.3 fold.

Point of comparison: [NMeE]TQV [EMeTQV (39)], “fold more potent than WT peptide 1” value ~3 fold. Against it:
- [NMeE]TDV [EMeTDV (36)] — the same, ~3 fold

ESNV [Compound 24 (ESDV with Asp P^-1 replaced by Asn)]: binds.
ESQV [Compound 22 (ESDV with Asp P^-1 replaced by Gln)]: binds.
ESEV [Compound 23 (ESDV with Asp P^-1 replaced by Glu)]: binds.

biological target: T2, HIS-PDZ2 protein (PSD-95 PDZ2, residues …); test: FP competition, fluorescent NR2B probe; remark: another data set of the same source

For [NMeE]SDV [Compound 18 (ESDV with N-methylated Glu at P^-3)], the “fold higher Ki compared to peptide 1” value was 3.7 fold.

ESNV [Compound 24 (ESDV with Asp P^-1 replaced by Asn)]: binds.
ESQV [Compound 22 (ESDV with Asp P^-1 replaced by Gln)]: binds.
ESEV [Compound 23 (ESDV with Asp P^-1 replaced by Glu)]: binds.

biological target: T4, HIS-PDZ3 protein (PSD-95 PDZ3, residues 309-401, with tag …) (human, UniProt P78352 309-401); test: FP competition, fluorescent CRIPT probe

Point of comparison: cyclohexylethyl-ETAV [N-Cyclohexylethyl-ETAV (56)], Ki 11 µM. Against it:
- ETAV [ETAV (51)] — 24-fold higher, 260 µM
- ATAV [ATAV (68)] — 36-fold higher, 400 µM
- cyclohexylethyl-QTAV [QTAV (72), N-cyclohexylethyl] — 13-fold higher, 141 µM
- cyclohexylethyl-ATAV [ATAV (73), N-cyclohexylethyl] — 8.1-fold higher, 89 µM

ATDV [ATDV (66)]: no binding.
QTDV [QTDV (65)]: no binding.
B5: no binding.
{cyclohexylethyl″}-QTDV-OH [QTDV (70), N-cyclohexylethyl]: no binding.
B6: no binding.

biological target: T1, HIS-PDZ1-2 protein (PSD-95 PDZ1-2 …); test: ITC

Point of comparison: {PEG8‑diacid}-IESDV (also: dimer: two peptides N-terminally joined via PEG8-diacid, Dimeric ligand) [(IESDV)2PEG8 (76)], Kd 0.12 µM. Against it:
- {PEG2‑diacid}-IESDV (also: dimer: two peptides N-terminally joined via PEG2-diacid, Dimeric ligand) [Compound 79 (IESDV dimerized with PEG2-diacid)] — 1.8-fold higher, 0.22 µM
- {PEG1‑diacid}-IESDV (also: dimer: two peptides N-terminally joined via PEG1-diacid, Dimeric ligand) [Compound 80 (IESDV dimerized with PEG1-diacid)] — 3.8-fold higher, 0.46 µM
- {PEG6‑diacid}-IESDV (also: dimer: two peptides N-terminally joined via PEG6-diacid, Dimeric ligand) [(IESDV)2PEG6 (77)] — 3.1-fold lower, 0.039 µM

biological target: T3, HIS-PDZ1 protein (PSD-95 PDZ1, residues …); test: FP competition, fluorescent NR2B probe; remark: another data set of the same source

Point of comparison: Et-ETAV [N-Ethyl-ETAV (52)], Ki 9.3 µM. Against it:
- Bn-ETAV [N-Benzyl-ETAV (58)] — within 1.5-fold, 7.2 µM
- Cyclohexylmethyl-ETAV [N-Cyclohexylmethyl-ETAV (55)] — 9.3-fold lower, 1 µM
- B7 — 3.9-fold lower, 2.4 µM
- cyclohexylethyl-ETAV [N-Cyclohexylethyl-ETAV (56)] — 9.9-fold lower, 0.94 µM
- butyl-ETAV [N-Butyl-ETAV (54)] — within 1.5-fold, 8.4 µM
- {(naphthalen-2-yl)ethyl}-ETAV [N-(Naphtalene-2-yl)ethyl-ETAV (63)] — 9.3-fold lower, 1 µM
- B8 — 9.5-fold lower, 0.98 µM

biological target: T2, HIS-PDZ2 protein (PSD-95 PDZ2, residues …); test: FP competition, fluorescent NR2B probe; remark: another data set of the same source

Point of comparison: cyclohexylethyl-ETAV [N-Cyclohexylethyl-ETAV (56)], Ki 0.45 µM. Against it:
- Et-ETAV [N-Ethyl-ETAV (52)] — 21-fold higher, 9.6 µM
- Bn-ETAV [N-Benzyl-ETAV (58)] — 12-fold higher, 5.2 µM
- Cyclohexylmethyl-ETAV [N-Cyclohexylmethyl-ETAV (55)] — 2.9-fold higher, 1.3 µM
- B7 — 2.4-fold higher, 1.1 µM
- Phenylethyl-ETAV [N-Phenylethyl-ETAV (59)] — 3.6-fold higher, 1.6 µM
- phenylpropyl-ETAV [N-Phenylpropyl-ETAV (60)] — 6.9-fold higher, 3.1 µM
- butyl-ETAV [N-Butyl-ETAV (54)] — 8.9-fold higher, 4 µM
- {(naphthalen-2-yl)ethyl}-ETAV [N-(Naphtalene-2-yl)ethyl-ETAV (63)] — 2.1-fold higher, 0.95 µM
- B8 — 2.2-fold higher, 1 µM

biological target: T3, HIS-PDZ1 protein (PSD-95 PDZ1, residues …); test: FP competition assay (Ki), fluorescent NR2B probe displaced from the PDZ domain; bar chart

ETQV (number 32 only on the sheet) [ETQV (32)]: binds.
ETNV (number 31 only on the sheet) [ETNV (31)]: binds.
[NMeE]TNV [Compound 38 (EMeTXV with X = Asn)]: binds.

biological target: T2, HIS-PDZ2 protein (PSD-95 PDZ2, residues …); test: as above

ETQV (number 32 only on the sheet) [ETQV (32)]: binds.
ETNV (number 31 only on the sheet) [ETNV (31)]: binds.
[NMeE]TNV [Compound 38 (EMeTXV with X = Asn)]: binds.

biological target: T3, HIS-PDZ1 protein (PSD-95 PDZ1, residues …); test: FP competition, fluorescent NR2B probe; remark: another data set of the same source

Point of comparison: cyclohexylethyl-ATAV [ATAV (73), N-cyclohexylethyl], Ki 8.9 µM. Against it:
- ATDV [ATDV (66)] — 3.4-fold higher, 30 µM
- QTDV [QTDV (65)] — 6.5-fold higher, 58 µM
- ATAV [ATAV (68)] — 7.2-fold higher, 64 µM
- cyclohexylethyl-QTAV [QTAV (72), N-cyclohexylethyl] — 2.4-fold higher, 21 µM
- cyclohexylethyl-ETAV [N-Cyclohexylethyl-ETAV (56)] — 9.5-fold lower, 0.94 µM
- QTAV [QTAV (67)] — 13-fold higher, 112 µM
- B6 — 4.9-fold lower, 1.8 µM
- B9 — 1.5-fold lower, 5.8 µM

biological target: T2, HIS-PDZ2 protein (PSD-95 PDZ2, residues …); test: FP competition, fluorescent NR2B probe; remark: another data set of the same source

Point of comparison: ATAV [ATAV (68)], Ki 73 µM. Against it:
- ATDV [ATDV (66)] — 1.9-fold lower, 38 µM
- QTDV [QTDV (65)] — within 1.5-fold, 60 µM
- cyclohexylethyl-QTAV [QTAV (72), N-cyclohexylethyl] — 6.1-fold lower, 12 µM
- cyclohexylethyl-ETAV [N-Cyclohexylethyl-ETAV (56)] — 160-fold lower, 0.45 µM
- QTAV [QTAV (67)] — within 1.5-fold, 108 µM
- B6 — 97-fold lower, 0.75 µM
- cyclohexylethyl-ATAV [ATAV (73), N-cyclohexylethyl] — 9-fold lower, 8.1 µM
- B9 — 20-fold lower, 3.6 µM

biological target: T1, HIS-PDZ1-2 protein (PSD-95 PDZ1-2 …); test: FP competition, fluorescent NR2B probe; exact Ki not calculable

Point of comparison: {PEG6‑diacid}-IESDV (also: dimer: two peptides N-terminally joined via PEG6-diacid, Dimeric ligand) [(IESDV)2PEG6 (77)], Ki ~0.1 µM. Against it:
- {PEG8‑diacid}-IESDV (also: dimer: two peptides N-terminally joined via PEG8-diacid, Dimeric ligand) [(IESDV)2PEG8 (76)] — the same, ~0.1 µM

biological target: T4, HIS-PDZ3 protein (PSD-95 PDZ3, residues …); test: FP competition, fluorescent CRIPT probe; remark: another data set of the same source

Point of comparison: B7, Ki 6.7 µM. Against it:
- ETAV [ETAV (51)] — 39-fold higher, 260 µM
- Et-ETAV [N-Ethyl-ETAV (52)] — 10-fold higher, 69 µM
- Bn-ETAV [N-Benzyl-ETAV (58)] — 9.4-fold higher, 63 µM
- Cyclohexylmethyl-ETAV [N-Cyclohexylmethyl-ETAV (55)] — 3.1-fold higher, 21 µM
- cyclohexylethyl-ETAV [N-Cyclohexylethyl-ETAV (56)] — 1.6-fold higher, 11 µM
- {(naphthalen-2-yl)ethyl}-ETAV [N-(Naphtalene-2-yl)ethyl-ETAV (63)] — within 1.5-fold, 10 µM
- B8 — within 1.5-fold, 7.8 µM
